Measured values reported in the supplement of paper PMC9112550, “Optimization of the antimicrobial peptide Bac7 by deep mutational scanning” (BMC Biology, 2022).

Test system: Escherichia coli TOP10
Experiment: shrunken log2 fold change of peptide-encoding DNA abundance (4.5 h post-induction vs induction); higher = less antimicrobial activity (less host growth inhibition)
Conditions: time post-induction: 4.5 h; library: site-saturation at positions 5, 18, 19, 20
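Note: peptides expressed intracellularly from a pBAD plasmid library in pooled LB shake-flask culture, induced with 0.3% L-arabinose, DNA abundance read by NGS, three biological replicates, DESeq2 with apeglm shrinkage.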

Sequence | shrunken log2 fold change
RRIRHRPPRLPRPRPRPRPFPRP | -0.18
RRIRVRPPRLPRPRPRPEYQPRP | -0.235
RRIRQRPPRLPRPRPRPLKIPRP | -0.141
RRIRNRPPRLPRPRPRPIMQPRP | -0.0584
RRIRKRPPRLPRPRPRPEFVPRP | 0.587
RRIRERPPRLPRPRPRPMLVPRP | -0.225
RRIRCRPPRLPRPRPRPSYNPRP | -0.816
RRIRIRPPRLPRPRPRPKYAPRP | -0.118
RRIRKRPPRLPRPRPRPQHYPRP | -0.0715
RRIRCRPPRLPRPRPRPDTWPRP | -0.234
RRIRARPPRLPRPRPRPWLKPRP | -0.0421
RRIRHRPPRLPRPRPRPIIVPRP | -0.0935
RRIRSRPPRLPRPRPRPQFSPRP | -0.152
RRIRPRPPRLPRPRPRPHAIPRP | -0.217
RRIRGRPPRLPRPRPRPKLSPRP | -0.0523
RRIRNRPPRLPRPRPRPLSQPRP | -0.00581
RRIRERPPRLPRPRPRPTGIPRP | 0.0836
RRIRIRPPRLPRPRPRPGHNPRP | -0.0704
RRIRSRPPRLPRPRPRPPTGPRP | 0.369
RRIRSRPPRLPRPRPRPHHDPRP | -0.759
RRIRQRPPRLPRPRPRPNLLPRP | -0.0134
RRIRLRPPRLPRPRPRPVYWPRP | -0.14
RRIRDRPPRLPRPRPRPAMFPRP | -0.228
RRIRERPPRLPRPRPRPEMHPRP | 0.0332
RRIRIRPPRLPRPRPRPGLKPRP | 0.0429

Sequence | shrunken log2 fold change
RRIRKRPPRLPRPRPRPECFPRP | 0.7
RRIRGRPPRLPRPRPRPVTRPRP | 0.383
RRIRQRPPRLPRPRPRPGMGPRP | 0.33
RRIRHRPPRLPRPRPRPENHPRP | -0.235
RRIRPRPPRLPRPRPRPFFFPRP | 0.279
RRIRFRPPRLPRPRPRPFEEPRP | -0.119
RRIRDRPPRLPRPRPRPVDWPRP | 0.812
RRIRGRPPRLPRPRPRPWSDPRP | 0.0554
RRIRNRPPRLPRPRPRPSSQPRP | -0.208
RRIRHRPPRLPRPRPRPDINPRP | -0.0579
RRIRQRPPRLPRPRPRPTWVPRP | 2.03
RRIRARPPRLPRPRPRPFHQPRP | -0.211
RRIRERPPRLPRPRPRPPRGPRP | 0.519
RRIRDRPPRLPRPRPRPGLRPRP | 0.277
RRIRGRPPRLPRPRPRPWKTPRP | -0.0497
RRIRTRPPRLPRPRPRPEEVPRP | -0.0075
RRIRGRPPRLPRPRPRPHERPRP | 0.878
RRIRERPPRLPRPRPRPKANPRP | 0.0174
RRIRTRPPRLPRPRPRPSKKPRP | -0.174
RRIRQRPPRLPRPRPRPHEIPRP | -0.0149
RRIRLRPPRLPRPRPRPNTEPRP | 0.019
RRIRMRPPRLPRPRPRPKKVPRP | 0.561
RRIRLRPPRLPRPRPRPAMGPRP | 0.248
RRIRPRPPRLPRPRPRPKGRPRP | -0.086
RRIRYRPPRLPRPRPRPGLGPRP | -0.0488

Sequence | shrunken log2 fold change
RRIRNRPPRLPRPRPRPRPFPRP | 0.472
RRIRARPPRLPRPRPRPHNVPRP | -0.0333
RRIRWRPPRLPRPRPRPVTFPRP | -0.186
RRIRIRPPRLPRPRPRPWSWPRP | -0.0152
RRIRVRPPRLPRPRPRPFRDPRP | -0.0207
RRIRNRPPRLPRPRPRPGACPRP | 0.0367
RRIRPRPPRLPRPRPRPIGWPRP | 0.376
RRIRMRPPRLPRPRPRPTWRPRP | 0.894
RRIRYRPPRLPRPRPRPCMVPRP | -0.251
RRIRHRPPRLPRPRPRPNLEPRP | 0.127
RRIRRRPPRLPRPRPRPDHTPRP | -0.447
RRIRSRPPRLPRPRPRPHFGPRP | -0.195
RRIRIRPPRLPRPRPRPTDTPRP | -1.86
RRIRMRPPRLPRPRPRPQFAPRP | 0.0822
RRIRDRPPRLPRPRPRPQQCPRP | -0.00965
RRIRDRPPRLPRPRPRPSHFPRP | -0.0338
RRIRERPPRLPRPRPRPYSSPRP | -0.0288
RRIRWRPPRLPRPRPRPRFPPRP | 0.304
RRIRPRPPRLPRPRPRPIKRPRP | -0.125
RRIRSRPPRLPRPRPRPENCPRP | 0.00362
RRIRWRPPRLPRPRPRPIIFPRP | -0.303
RRIRTRPPRLPRPRPRPTDWPRP | 0.218
RRIRWRPPRLPRPRPRPVCQPRP | -0.0154
RRIRKRPPRLPRPRPRPDVPPRP | 0.501
RRIRRRPPRLPRPRPRPMIYPRP | -0.305

Sequence | shrunken log2 fold change
RRIRFRPPRLPRPRPRPKCFPRP | -0.108
RRIRCRPPRLPRPRPRPCTVPRP | -0.419
RRIRFRPPRLPRPRPRPYTFPRP | -1.3
RRIRIRPPRLPRPRPRPMNKPRP | -0.627
RRIRRRPPRLPRPRPRPCSCPRP | -0.017
RRIRCRPPRLPRPRPRPILYPRP | -0.716
RRIRWRPPRLPRPRPRPEYLPRP | -0.0854
RRIRARPPRLPRPRPRPHNMPRP | -0.446
RRIRPRPPRLPRPRPRPKTIPRP | -0.0767
RRIRGRPPRLPRPRPRPDSFPRP | 0.00128
RRIRPRPPRLPRPRPRPKCYPRP | -0.193
RRIRNRPPRLPRPRPRPKANPRP | 0.177
RRIRQRPPRLPRPRPRPWELPRP | 0.0585
RRIRERPPRLPRPRPRPNVKPRP | -0.195
RRIRSRPPRLPRPRPRPCTDPRP | -0.11
RRIRDRPPRLPRPRPRPVGEPRP | 0.55
RRIRARPPRLPRPRPRPHGTPRP | -0.0246
RRIRPRPPRLPRPRPRPLAMPRP | 0.193
RRIRHRPPRLPRPRPRPSNWPRP | -0.106
RRIRGRPPRLPRPRPRPMCDPRP | 1.07
RRIRQRPPRLPRPRPRPTWKPRP | 0.00778
RRIRLRPPRLPRPRPRPQKPPRP | -0.272
RRIRNRPPRLPRPRPRPLQTPRP | -0.0644
RRIRGRPPRLPRPRPRPHLVPRP | 0.294
RRIRLRPPRLPRPRPRPIYHPRP | -0.6

Sequence | shrunken log2 fold change
RRIRKRPPRLPRPRPRPYRPPRP | 0.0318
RRIRQRPPRLPRPRPRPWQMPRP | -0.0417
RRIRVRPPRLPRPRPRPCTVPRP | -0.14
RRIRLRPPRLPRPRPRPCQHPRP | -0.382
RRIRSRPPRLPRPRPRPPPRPRP | 1.09
RRIRLRPPRLPRPRPRPRCIPRP | -0.0325
RRIRCRPPRLPRPRPRPMWCPRP | 0.148
RRIRMRPPRLPRPRPRPATNPRP | 0.499
RRIRCRPPRLPRPRPRPIMPPRP | -0.11
RRIRPRPPRLPRPRPRPNSDPRP | -0.39
RRIRQRPPRLPRPRPRPPKWPRP | 0.136
RRIRERPPRLPRPRPRPEIYPRP | 0.0872
RRIRHRPPRLPRPRPRPVGQPRP | 0.0139
RRIRERPPRLPRPRPRPMIEPRP | -0.184
RRIRLRPPRLPRPRPRPATFPRP | -0.0149
RRIRPRPPRLPRPRPRPCQHPRP | -0.161
RRIRRRPPRLPRPRPRPPPRPRP | 1.32
RRIRQRPPRLPRPRPRPDKYPRP | -0.0227
RRIRSRPPRLPRPRPRPVCTPRP | -0.0518
RRIRHRPPRLPRPRPRPPRCPRP | 0.526
RRIRNRPPRLPRPRPRPYEFPRP | 0.121
RRIRMRPPRLPRPRPRPWHGPRP | -0.0653
RRIRARPPRLPRPRPRPVLHPRP | 0.288
RRIRRRPPRLPRPRPRPDYGPRP | -0.28
RRIRERPPRLPRPRPRPGINPRP | -0.249

Sequence | shrunken log2 fold change
RRIRKRPPRLPRPRPRPFWQPRP | 0.0521
RRIRLRPPRLPRPRPRPDNQPRP | -0.889
RRIRIRPPRLPRPRPRPHFYPRP | -0.407
RRIRKRPPRLPRPRPRPWTIPRP | 0.0185
RRIRERPPRLPRPRPRPPYNPRP | -0.728
RRIRIRPPRLPRPRPRPPQYPRP | -0.226
RRIRIRPPRLPRPRPRPLFSPRP | -0.423
RRIRFRPPRLPRPRPRPHKTPRP | -0.0597
RRIRGRPPRLPRPRPRPCKCPRP | -0.082
RRIRRRPPRLPRPRPRPQTIPRP | 0.272
RRIRHRPPRLPRPRPRPPDAPRP | 0.348
RRIRTRPPRLPRPRPRPSATPRP | 0.273
RRIRGRPPRLPRPRPRPSWYPRP | -0.102
RRIRSRPPRLPRPRPRPNTMPRP | -0.154
RRIRYRPPRLPRPRPRPMCHPRP | -0.0146
RRIRYRPPRLPRPRPRPKMIPRP | -0.537
RRIRQRPPRLPRPRPRPTFNPRP | -0.201
RRIRIRPPRLPRPRPRPSGYPRP | 0.00435
RRIRDRPPRLPRPRPRPVATPRP | 0.814
RRIRMRPPRLPRPRPRPLSQPRP | 0.0295
RRIRCRPPRLPRPRPRPNNQPRP | -0.75
RRIRTRPPRLPRPRPRPEISPRP | 0.00497
RRIRRRPPRLPRPRPRPFMGPRP | -0.366
RRIRRRPPRLPRPRPRPYDFPRP | -0.296
RRIRWRPPRLPRPRPRPKSYPRP | 0.0188
